Laboratory results from paper PMC4072508 (PLoS Computational Biology, 2014).
Each block holds one binder with its values, some of them ahead of it. FAM = fluorescein group

Tests used:
Experiment in all cases: fluorescence polarisation; direct binding: 10 nM FAM-labeled peptide, receptor serially diluted; 25°C; 20 mM NaPO4, 50 mM NaCl, 1 mM EDTA, 0.001% Triton X, pH 7.8; single-site binding model
Conditions in all cases: both partners purified
Bcl-2 = molecular target: T1, Bcl-2 (human, UniProt P10415 1-239)
T1 construct: human Bcl-2; The c-Myc tag is told for the SPOT arrays; also called c-Myc-tagged receptor; prosurvival protein

Bfl-1 = molecular target: T2, Bfl-1 (human, UniProt Q16548 1-175)
T2 construct: human Bfl-1; The c-Myc tag is told for the SPOT arrays; also called c-Myc-tagged receptor; prosurvival protein
T2 sequence (looked up): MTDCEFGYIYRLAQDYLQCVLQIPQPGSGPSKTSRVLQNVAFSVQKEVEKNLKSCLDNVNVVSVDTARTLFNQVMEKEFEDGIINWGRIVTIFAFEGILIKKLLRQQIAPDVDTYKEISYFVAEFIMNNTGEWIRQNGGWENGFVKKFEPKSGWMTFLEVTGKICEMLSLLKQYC

Mcl-1 = molecular target: T3, Mcl-1 (human, UniProt Q07820 1-350)
T3 construct: human Mcl-1; The c-Myc tag is told for the SPOT arrays; also called c-Myc-tagged receptor; prosurvival protein

Bcl-w = molecular target: T4, Bcl-w (human, UniProt Q92843 1-193)
T4 construct: human Bcl-w; The c-Myc tag is told for the SPOT arrays; also called c-Myc-tagged receptor; prosurvival protein
T4 sequence (looked up): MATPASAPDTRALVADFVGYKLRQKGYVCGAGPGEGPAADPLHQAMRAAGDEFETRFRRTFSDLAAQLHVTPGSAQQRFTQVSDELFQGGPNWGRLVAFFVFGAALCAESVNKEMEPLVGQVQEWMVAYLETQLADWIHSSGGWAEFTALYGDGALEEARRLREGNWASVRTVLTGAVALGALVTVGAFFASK

T1 sequence (P10415 whole entry): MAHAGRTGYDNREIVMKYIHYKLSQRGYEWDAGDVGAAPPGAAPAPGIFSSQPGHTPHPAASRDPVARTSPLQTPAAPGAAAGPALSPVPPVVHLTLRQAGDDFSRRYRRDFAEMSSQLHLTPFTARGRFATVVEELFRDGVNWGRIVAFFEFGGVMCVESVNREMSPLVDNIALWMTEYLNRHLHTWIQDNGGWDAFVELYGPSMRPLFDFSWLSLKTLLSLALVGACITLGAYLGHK
T3 sequence (Q07820 whole entry): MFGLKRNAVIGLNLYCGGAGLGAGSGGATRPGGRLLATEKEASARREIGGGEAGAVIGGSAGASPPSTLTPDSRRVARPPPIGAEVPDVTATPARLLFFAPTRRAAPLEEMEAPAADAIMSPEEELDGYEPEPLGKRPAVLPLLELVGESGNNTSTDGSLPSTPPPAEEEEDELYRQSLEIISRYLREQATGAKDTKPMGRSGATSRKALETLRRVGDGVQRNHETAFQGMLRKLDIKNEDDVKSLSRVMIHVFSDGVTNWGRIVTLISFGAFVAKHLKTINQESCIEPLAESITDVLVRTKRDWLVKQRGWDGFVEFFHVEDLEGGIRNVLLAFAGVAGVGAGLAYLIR

- Kd (Bcl-2): 40 nM
B1: PURB BH3-like peptide (peptide)
chain: {FAM}-PFKAWGKFGGAFCRYADEMKEIQERQ-NH2

- Kd (Bcl-2): < 30 nM
- Kd (Bfl-1): < 30 nM
- Kd (Mcl-1): < 30 nM
- Kd (Bcl-w): < 30 nM
B2: c6orf222 BH3-like peptide (peptide)
chain: {FAM}-IIQMIVELLKRVGDQWEEEQSLA-NH2
